From PMC8227628, “DisA Limits RecG Activities at Stalled or Reversed Replication Forks” (Cells, 2021)

Legend:
DisA [1] = biological target: T1, DisA (Bacillus subtilis, UniProt P37573); assay: TLC of conversion to c-di-AMP; format: biochemical; details: 10 mM MgCl2, 100 µM ATP, pH 7.5, 37 °C, no DNA; labelled compound
T1 construct: full length, expressed in E. coli BL21(DE3) pLysS; octamer; C-terminal His tag in the pull-down variant
T1 sequence (P37573 1-360): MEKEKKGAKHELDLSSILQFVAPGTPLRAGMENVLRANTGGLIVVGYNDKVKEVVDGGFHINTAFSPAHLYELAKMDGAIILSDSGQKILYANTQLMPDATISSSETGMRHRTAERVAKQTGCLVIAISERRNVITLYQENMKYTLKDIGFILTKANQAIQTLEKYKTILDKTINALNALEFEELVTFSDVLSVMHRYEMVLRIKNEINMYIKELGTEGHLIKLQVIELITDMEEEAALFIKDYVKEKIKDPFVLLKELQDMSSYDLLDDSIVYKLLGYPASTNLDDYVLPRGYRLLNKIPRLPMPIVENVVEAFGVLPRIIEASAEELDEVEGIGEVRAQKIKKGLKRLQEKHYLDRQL

His-tagged DisA = biological target: T2, His-tagged DisA (B. subtilis, UniProt P37573 1-360); assay: cell-based or functional assay
T2 sequence (looked up): T1 sequence (P37573 1-360)

DisA [2] = biological target: T3, DisA (Bacillus subtilis, UniProt P37573 1-360); assay: EMSA; 5 mM ATPgS; 37 C; 0.2% glutaraldehyde before loading; apparent Kd; complexes retained in well; EMSA: 0.1 nM HJ-J3 in buffer B (composition not in material) with 5 mM ATPgS, 15 min, 37 C, 0.2% glutaraldehyde before 6% PAGE in TAE; DNase I: buffer C 50 mM Tris-HCl pH 7.5, 1 mM DTT, 50 mM NaCl, 10 mM MgCl2, 0.05 mg/mL BSA, 5% glycerol, 5 mM ATPgS, 37 C; details: protein: recombinant; chain copies: 8; label: 32P (gamma-32P, 5' end of one strand); four-way Holliday junction of 4 strands, 1 copy each, heterologous arms
T3 sequence: T1 sequence (P37573 1-360)

RecG = biological target: T4, RecG (Bacillus subtilis, UniProt O34942 1-682); assay: EMSA; 5 mM ATPgS; 37 C; 0.2% glutaraldehyde before loading; apparent Kd; G-I and minor G-II complexes; EMSA: 0.1 nM HJ-J3 in buffer B (composition not in material) with 5 mM ATPgS, 15 min, 37 C, 0.2% glutaraldehyde before 6% PAGE in TAE; DNase I: buffer C 50 mM Tris-HCl pH 7.5, 1 mM DTT, 50 mM NaCl, 10 mM MgCl2, 0.05 mg/mL BSA, 5% glycerol, 5 mM ATPgS, 37 C; details: protein: recombinant; label: 32P (gamma-32P, 5' end of one strand); four-way Holliday junction of 4 strands, 1 copy each, heterologous arms
T4 sequence: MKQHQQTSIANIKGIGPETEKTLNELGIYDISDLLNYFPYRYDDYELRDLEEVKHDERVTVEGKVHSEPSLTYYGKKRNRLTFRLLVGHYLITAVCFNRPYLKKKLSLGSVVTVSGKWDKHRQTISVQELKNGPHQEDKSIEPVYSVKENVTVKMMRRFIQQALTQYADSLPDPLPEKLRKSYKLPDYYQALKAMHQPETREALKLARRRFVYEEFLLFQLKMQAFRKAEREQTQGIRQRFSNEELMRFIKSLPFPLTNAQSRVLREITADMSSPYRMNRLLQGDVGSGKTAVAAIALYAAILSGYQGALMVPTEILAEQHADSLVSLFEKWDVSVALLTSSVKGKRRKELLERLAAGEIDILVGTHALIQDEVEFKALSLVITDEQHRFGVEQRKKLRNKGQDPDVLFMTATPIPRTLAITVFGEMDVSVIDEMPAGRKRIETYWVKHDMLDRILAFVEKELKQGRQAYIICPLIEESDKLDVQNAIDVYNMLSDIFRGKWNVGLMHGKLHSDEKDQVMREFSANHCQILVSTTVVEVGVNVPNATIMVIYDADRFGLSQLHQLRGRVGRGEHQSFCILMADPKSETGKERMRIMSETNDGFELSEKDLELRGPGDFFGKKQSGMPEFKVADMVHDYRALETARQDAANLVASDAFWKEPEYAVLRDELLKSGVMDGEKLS

DisA;RecG = biological target: T5, DisA;RecG (Bacillus subtilis;Bacillus subtilis, UniProt P37573;O34942 1-360;1-682, |); assay: DNase I footprinting; 5 mM ATPgS, 10 mM Mg2+; 60 nM RecG with increasing DisA; shorter protection on both sides of junction; ternary complex proposed; EMSA: 0.1 nM HJ-J3 in buffer B (composition not in material) with 5 mM ATPgS, 15 min, 37 C, 0.2% glutaraldehyde before 6% PAGE in TAE; DNase I: buffer C 50 mM Tris-HCl pH 7.5, 1 mM DTT, 50 mM NaCl, 10 mM MgCl2, 0.05 mg/mL BSA, 5% glycerol, 5 mM ATPgS, 37 C; details: protein: recombinant;recombinant; tags: ;; chain copies: 8;1; label: 32P (gamma-32P, 5' end of one strand); four-way Holliday junction of 4 strands, 1 copy each, heterologous arms
T5 sequence 1: T1 sequence (P37573 1-360)
T5 sequence 2: T4 sequence

For Nc1ncnc2c1ncn2[C@@H]1O[C@@H]2COP(=O)(O)O[C@H]3[C@@H](O)[C@H](n4cnc5c(N)ncnc54)O[C@@H]3COP(=O)(O)O[C@H]2[C@H]1O [c-di-AMP], the “TLC of [α^32P]-ATP conversion to c-di-AMP” value (DisA [1]) was “it efficiently converted two ATP molecules into c-di-AMP”.

B1: native RecG (natural protein, B. subtilis, UniProt O34942 1-682, looked up)
chain: T4 sequence
For B1, the “inhibition of the DAC activity (c-di-AMP synthesis) of DisA (25 nM) with HJ-J3 DNA (125 nM) and 100 µM ATP, RecG 7 to 30 nM” value (His-tagged DisA) was ~11 fold.

B2: HJ-J3 DNA (fixed Holliday junction) (structured_DNA)
DNA 1: CGCAAGCGACAGGAACCTCGAGAAGCTTCCGGTAGCAGCCTGAGCGGTGGTTGAATTCCTCGAGGTTCCTGTCGCTTGCG
DNA 2: CGCAAGCGACAGGAACCTCGAGGAATTCAACCACCGCTCAACTCAACTGCAGTCTAGACTCGAGGTTCCTGTCGCTTGCG
DNA 3: CGCAAGCGACAGGAACCTCGAGTCTAGACTGCAGTTGAGTCCTTGCTAGGACGGATCCCTCGAGGTTCCTGTCGCTTGCG
DNA 4: CGCAAGCGACAGGAACCTCGAGGGATCCGTCCTAGCAAGGGGCTGCTACCGGAAGCTTCTCGAGGTTCCTGTCGCTTGCG
B2 was tested, and the Kd (DisA [2]) was 17 ± 1 nM, the Kd (RecG) was 4 ± 0.3 nM and the binding result (DisA;RecG) was “binds”.
